Blank lines part the entries; values can stand above or below the binder they belong to.
Experiments:
[1] = biological target: T1, human IGSF11 (VSIG3) ECD, His-tagged (human, UniProt Q5DX21 23-241); assay: blocking ELISA: VSIR-Fc immobilised, IgG dilution series pre-incubated with 200 nM IGSF11 ECD-His, bound IGSF11 detected with anti-His-HRP
T1 construct: in part bought (SinoBiological 13094-H08H); also called HIS-IGSF11; IGSF11-HIS; not shown: His tag
T1 sequence: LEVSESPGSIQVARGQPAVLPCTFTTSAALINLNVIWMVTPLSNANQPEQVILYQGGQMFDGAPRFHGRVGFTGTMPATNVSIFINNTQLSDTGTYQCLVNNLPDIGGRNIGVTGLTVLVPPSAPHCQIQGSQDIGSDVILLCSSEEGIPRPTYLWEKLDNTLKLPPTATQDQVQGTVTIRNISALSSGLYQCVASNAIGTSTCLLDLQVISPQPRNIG

[2] = biological target: T1, human IGSF11 (VSIG3) ECD, His-tagged; assay: IgG1 ELISA EC50 0.05-1 nM
[3] = biological target: T2, extracellular domain (ECD) of human IGSF11 (VSIG3), recombinant (human, UniProt Q5DX21 23-241); assay: SPR
T2 construct: biotinylated where captured on streptavidin; tags of the reagent not always stated; also called IGSF11 (ECD domain); ECD-IGSF11
T2 sequence: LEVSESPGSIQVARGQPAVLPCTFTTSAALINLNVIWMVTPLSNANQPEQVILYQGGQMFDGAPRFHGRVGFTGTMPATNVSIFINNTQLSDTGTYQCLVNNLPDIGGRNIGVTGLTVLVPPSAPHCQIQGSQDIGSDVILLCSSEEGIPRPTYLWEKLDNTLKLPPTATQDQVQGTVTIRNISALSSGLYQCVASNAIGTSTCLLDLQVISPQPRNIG

[4] = biological target: T3, human IGSF11 (VSIG3) expressed on cells (human, UniProt Q5DX21 23-431); assay: FACS, M579-A2-luc cells with IGSF11 siRNA (KD, knock-down control)
T3 sequence: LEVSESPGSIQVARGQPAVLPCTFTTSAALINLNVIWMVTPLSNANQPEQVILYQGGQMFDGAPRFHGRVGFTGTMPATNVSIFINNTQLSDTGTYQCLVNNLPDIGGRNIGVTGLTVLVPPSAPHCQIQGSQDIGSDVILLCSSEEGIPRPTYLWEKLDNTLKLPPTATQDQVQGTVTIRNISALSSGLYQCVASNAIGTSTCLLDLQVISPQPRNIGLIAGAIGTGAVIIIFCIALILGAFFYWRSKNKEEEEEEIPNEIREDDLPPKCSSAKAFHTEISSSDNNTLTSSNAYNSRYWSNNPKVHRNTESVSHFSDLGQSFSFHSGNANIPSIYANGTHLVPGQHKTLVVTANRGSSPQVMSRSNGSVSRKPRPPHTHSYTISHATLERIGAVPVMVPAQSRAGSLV

[5] = biological target: T3, human IGSF11 (VSIG3) expressed on cells; assay: IgG1 FACS HEK-OE
[6] = biological target: T3, human IGSF11 (VSIG3) expressed on cells; assay: FACS, DMS 273 cells with IGSF11 siRNA (KD, knock-down control)
[7] = biological target: T4, IgC2 domain of human IGSF11 fused to murine IgG2a Fc (human, UniProt Q5DX21 137-241); assay: IgG ELISA
T4 construct: not shown: murine IgG2a Fc-region
T4 sequence: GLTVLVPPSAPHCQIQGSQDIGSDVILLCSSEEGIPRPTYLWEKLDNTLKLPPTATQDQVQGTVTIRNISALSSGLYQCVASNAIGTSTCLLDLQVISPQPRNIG

[8] = biological target: T5, full-length ECD of human IGSF11 fused to murine Fc (human, UniProt Q5DX21 23-241); assay: IgG ELISA
T5 construct: also called Fc-fusion IGSF11 ECD; not shown: murine Fc
T5 sequence: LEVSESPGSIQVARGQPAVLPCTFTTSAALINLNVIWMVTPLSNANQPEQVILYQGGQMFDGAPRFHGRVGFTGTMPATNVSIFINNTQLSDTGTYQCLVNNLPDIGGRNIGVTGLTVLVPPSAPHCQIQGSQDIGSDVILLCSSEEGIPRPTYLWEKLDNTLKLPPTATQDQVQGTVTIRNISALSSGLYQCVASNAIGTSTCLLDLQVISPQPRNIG

[9] = biological target: T3, human IGSF11 (VSIG3) expressed on cells; assay: FACS, M579-A2-luc cells with scrambled control siRNA (SC)
[10] = biological target: T3, human IGSF11 (VSIG3) expressed on cells; assay: FACS, DMS 273 cells with scrambled control siRNA (SC)
[11] = biological target: T1, human IGSF11 (VSIG3) ECD, His-tagged; assay: IgG1 ELISA EC50 0.02-0.05 nM
[12] = biological target: T6, murine IGSF11 expressed on cells (mouse, UniProt P0C673 23-428); assay: IgG FACS CT26-IGSF11
T6 construct: MC38-IGSF11, CT26-IGSF11, MC38-wt (naturally expresses murine IGSF11)
T6 sequence: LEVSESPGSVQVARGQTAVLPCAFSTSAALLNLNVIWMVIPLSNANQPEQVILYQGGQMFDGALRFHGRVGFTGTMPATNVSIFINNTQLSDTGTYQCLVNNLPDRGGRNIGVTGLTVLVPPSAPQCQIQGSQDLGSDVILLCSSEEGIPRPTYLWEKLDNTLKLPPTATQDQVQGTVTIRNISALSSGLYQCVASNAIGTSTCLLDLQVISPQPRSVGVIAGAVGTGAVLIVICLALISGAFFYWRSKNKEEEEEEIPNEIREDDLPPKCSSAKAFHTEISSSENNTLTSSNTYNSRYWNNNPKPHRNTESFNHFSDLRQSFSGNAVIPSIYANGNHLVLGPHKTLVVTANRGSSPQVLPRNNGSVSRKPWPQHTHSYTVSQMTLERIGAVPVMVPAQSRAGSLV
Source text: (§1) Unbound antibodies were removed by washing the cells three time with FACS buffer. Bound antibodies were detected with a mouse anti-human IgG antibody conjugated with AlexaFluor647.

[13] = biological target: T6, murine IGSF11 expressed on cells; assay: IgG FACS MC38-IGSF11
Source text: as §1

[14] = biological target: T1, human IGSF11 (VSIG3) ECD, His-tagged; assay: IgG1 ELISA EC50 <0.02 nM
[15] = biological target: T3, human IGSF11 (VSIG3) expressed on cells; assay: IgG1 FACS DMS 273

B1: B-008 (chain-swapped IgG1) (antibody, V domains shown)
VH: EVQLVESGGGLIQPGGSLRLSCAASGFTVSSNYMSWVRQAPGKGLEWVSVIYSGGSTYYADSVKGRFTISRDNSKNTLYLQMNSLRAEDTAVYYCARGNPYYYGDLQVNFDYWGQGTLVTVSS
VL: QAVVTQEPSLTVSPGGTVTPTCGSSTGAVTSGNLPNWFQQKPGQAPRALIYSTSNKHSWTPARISGSLLGGKAALTLSGVQPEDEAEYYCLLYYGGAWVFGGGTKLTVL
notes: human IgG1 format; also called B8
IC50 (read off the curve) [1]: ~4 nM

B2: A-034 (IgG1 format) (antibody, V domains shown)
VH: QMQLVQSGGGLVKPGGSLRLSCAASGFTFSSYTMNWVRQAPGKGLEWVSSISSIGTYIYYADSVKGRFTISRDNAKNSLYLQMNSLRAEDTAVYYCARVLLSGSYYGYFDSWGQGTLVTVSS
VL: QSVLTQPPSVSGAPGQRVTISCTGSSSNIGAGYDVHWYQQLPGTAPKLFIYGNSNRPSGVPDRFSGSKSGTSASLAITGLQAEDEADYYCQSYDSSLSGYVFGTGTKVTVL
notes: human IgG1 format
EC50 [2]: 0.05 to 1 nM | Kd [3]: 250 to 500 nM

B3: A-025 (IgG1 format) (antibody, V domains shown)
VH: QVQLVQSGAEVKKPGSSVKVSCKASGGTFSSYAISWVRQAPGQGLEWMGGIIPIFGTANYAQKFQGRVTITADESTSTAYMELTSLRSEDTAVYYCARGGWLRQNWFDPWGQGTLVTVSS
VL: SSELTQDPAVSVALGQTVRITCQGDSLRSYYASWYQQKPGQAPVLVIYGKNNRPSGIPDRFSGSSSGNTASLTITGAQAEDEADYYCNSRDSSGNHPRVFGGGTKLTVL
notes: human IgG1 format
EC50 [2]: 0.05 to 1 nM

B5: A-027 (IgG1 format) (antibody, V domains shown)
VH: QVQLVQSGAEVKKPGSSVKVSCKASGGTFSSYAISWVRQAPGQGLEWMGGIIPIFGTANYAQKFQGRVTITADKSTSTAYMELSSLRSEDTAVYYCARARGSTWGYFDYWGQGTLVTVSS
VL: EIVLTQSPASLSLSPGERVTLSCRASQSVSNYLAWYQQKPGQAPRLLIYDASNRATGIPARFSGSGSGTDFTLTISSLEPEDFAVYYCQQRDNWPLTFGGGTKVEIK
notes: human IgG1 format
% binding (FACS heat-map) [4]: 2.5% | EC50 [5]: > 50 nM | % binding (FACS heat-map) [6]: 2.63% | EC50 [7]: 1 to 20 nM | EC50 [8]: 1 to 20 nM | % binding (FACS heat-map) [9]: 3.32% | % binding (FACS heat-map) [10]: 14.3%

B6: A-009 (IgG1 format) (antibody, V domains shown)
VH: QVQLVQSGAEVKKPGSSVKVSCKASGGTFSSYAISWVRQAPGQGLEWMGGIIPIFGTANYAQKFQGRVTITADESTSTAYMELSSLRSEDTAVYYCARGRGFGELYFDYWGQGTLVTVSS
VL: ETTLTQSPATLSVSPGERATLSCRASQGVRSNIAWYQQKPGQAPRLLIYDSSTRATGIPARFSGSGSGTEFTLTISSLQSEDFAVYSCQQYKNWPRTFGQGTKVEIK
notes: human IgG1 format
EC50 [2]: 0.05 to 1 nM

B9: A-029 (IgG1 format) (antibody, V domains shown)
VH: QVQLVQSGAEVKKPGSSVKVSCKASGGTFSSYAISWVRQAPGQGLEWMGGIIPIFGTANYAQKFQGRVTITADESTGTAYMELSSLRSEDTAVYYCARSYYYYYGMDVWGQGTTVTVSS
VL: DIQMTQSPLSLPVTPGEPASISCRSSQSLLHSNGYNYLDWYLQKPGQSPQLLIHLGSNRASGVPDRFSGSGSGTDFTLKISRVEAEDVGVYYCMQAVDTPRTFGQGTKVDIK
notes: human IgG1 format
EC50 [2]: 0.05 to 1 nM

B10: C-016 (IgG1 format) (antibody, V domains shown)
VH: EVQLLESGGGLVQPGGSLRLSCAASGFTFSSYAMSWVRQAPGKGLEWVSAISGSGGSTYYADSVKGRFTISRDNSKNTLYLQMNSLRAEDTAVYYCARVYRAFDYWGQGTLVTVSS
VL: ASVLTQPPSVSAAPGQKVTISCSGSSSNIGNNYVSWYQQLPGTAPKLLIYDNNKRPSGIPDRFSGSKSGTSATLGITGLQAEDEADYYCHLYTEAESHWVFGGGTKLTVL
EC50 [12]: 20 to 50 nM | EC50 [13]: 50 to 100 nM

B11: A-003 (IgG1 format) (antibody, V domains shown)
VH: VQLVQSGAEVKKPGSSVKVSCKASGGTFSSYAISWVRQAPGQGLEWMGGIIPIFGTANYAQKFQGRVTITADESTSTAYMELSSLRSEDTAVYYCASPRIQLWAAGGFDYWGQGTLVTVSS
VL: QSALTQPASVSGSPGQSITISCTGTSSDVGGYNLVSWYQQHPGKAPKLMIYDVSNRPSGVSNRFSGSKSGNTASLTISGLQAEDEADYYCSSFTTSTTLVFGGGTKLTVL
notes: human IgG1 format
EC50 [2]: 0.05 to 1 nM

Further lines, results first:

EC50 [2]: 0.05 to 1 nM
B4: A-023 (IgG1 format) (antibody, V domains shown)
VH: QVQLVQSGAEVKKPGSSVKVSCKASGGTFSSYAISWVRQAPGQGLEWMGGIIPIFGTANYAQKFQGRVTITADESTSTAYMELSSLRSEDTAVYYCARPKYSSGWFYYYGMDVWGQGTTVTVSS
VL: QSVLTQPPSVSAAPGQKVTISCSGSSSNIGNNYVSWYQQLPGTAPKLLIYDNNKRPSGIPDRFSGSKSGTSATLGITGLQTGDEADYYCGTWDSSLSVVFGGGTKLTVL
notes: human IgG1 format

EC50 [11]: 0.02 to 0.05 nM
B7: A-033 (IgG1 format) (antibody, V domains shown)
VH: QVQLVQSGAEVKKPGASVKVSCKASGYTFTSYGISWVRQAPGQGLEWMGWISAYNGNTNYAQKLQGRVTMTTDTSTSTAYMELRSLRSDDTAVYYCARDHSIVGATTFDYWGQGTLVTVSS
VL: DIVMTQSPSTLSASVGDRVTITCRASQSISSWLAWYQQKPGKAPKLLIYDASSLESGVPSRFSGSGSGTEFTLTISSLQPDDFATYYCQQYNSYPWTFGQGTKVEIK
notes: human IgG1 format

EC50 [5]: > 50 nM | EC50 [11]: 0.02 to 0.05 nM | EC50 [7]: 20 to 100 nM | EC50 [8]: 1 to 20 nM
B8: A-035 (IgG1 format) (antibody, V domains shown)
VH: QVQLVQSGAEVKKPGASVKVSCKASGYTFTGYYMHWVRQAPGQGLEWMGWINPNSGNTGYAQKFQGRVTMTRNTSISTAYMELSSLRSEDTAVYYCARGRLERGYWYFDLWGRGTLVTVSS
VL: NFMLTQPHSVSESPGRTVTISCTRSSGSITSNYVQWYQQRPGSAPTILIYEDKERPSEVPDRFSGSIDISSNSASLTISGLKTEDEADYYCQSYGGTSQGVLFGGGTKVTVL
notes: human IgG1 format

EC50 [5]: 10 to 50 nM | EC50 [14]: < 0.02 nM | EC50 [7]: < 1 nM | EC50 [8]: < 1 nM | EC50 [15]: 10 to 50 nM
B12: A-022 (IgG1 format) (antibody, V domains shown)
VH: EVQLLESGPGLVKPSQTLSLTCTVSGGSISSGGYYWSWIRQHPGKGLEWIGYIYYSGSTYYNPSLKSRVTISVDTSKNQFSLKLSSVTAADTAVYYCARASRSTDYYFDYWGQGTLVTVSS
VL: QPGLTQPPSMSYGLGQTATLTCTGNRNNIGDQGAAWLQQHQGHPPKLLSYRNNNGPSGISERLSASRSGNTASLTISGLQPEDEADYYCSAWDSSLRAWVFGGGTKLTVL
notes: human IgG1 format

EC50 [11]: 0.02 to 0.05 nM
B13: A-008 (IgG1 format) (antibody, V domains shown)
VH: QLQLQESGPGLVKPSETLSLTCTVSGGSISSSGYYWGWIRQPPGKGLEWIGSIYYSGSTYYNPSLKSRVTISVDTSKNQFSLKLSSVTAADTAVYYCARHRVRFGEFDAFDIWGQGTMVTVSS
VL: QAVLTQPPSVSGAPGERVTLSCTGTSSNVGADFDVHWYQQFPGTAPRLLIFGSDNRPSGVPDRFSGSKSGTSASLAITGLQVEDEADYYCQAYDVRLSGWVFGGGTKLTVL
notes: human IgG1 format
